The text below walks through data of publication PMC3832651, “Characterization of Neutral Lipase BT-1 Isolated from the Labial Gland of Bombus terrestris Males” (PLoS ONE, 2013).

Substrate in the data set: CCCCCCCCCCCC(=O)Oc1ccc([N+](=O)[O-])cc1
Briefly: purified protein. In kind it is biochemical, Bombus terrestris. Conditions: 50 mM Tris/HCl, pH 8.2, 25°C, p-NPL 0.05-0.4 mM added in 2-propanol.

B1: lipase BT-1 (Bombus terrestris) (protein)
chain: VICDVEDTLHVSRKIRLKIYKGNSSYFSSTESMVMNPGNIADDILPDRDSILYIHGFLENTEAENVRVIIRAYLDKGDVNVIVLDWGEIAFNINYVYVSSQVVTIAKAVAESLKKLVDLIDLDTLHVIGHSLGAHIAGNIGRYANINLSRITGLDPALPLFYPSTCHVRSTDAEAVVILHTDGGFYGTATNTGTIDFYVNGGSSVQPGCPIIFGGEFCSHQRSTRIYAESLLNPKAFPAHKCLNEIADTEEVYFGDSTPKDIYGTYCFNTNAKPPYGKTI
notes: native, purified from labial gland (cephalic part) of 2- to 3-day-old males on octyl-agarose, Triton X-100 desorption; ~30 kDa on SDS-PAGE; identified by MS (18 peptides); catalytic triad Ser155, Asp179, His244
A word on the Km: it is the substrate concentration at which the rate is half of its maximum. The Vmax is the top rate of the reaction or transport when substrate is in excess. On to B1, for which the Km was 1.1 ± 0.3 µM and the Vmax was determined as 0.15 µmol/min/mg.
